From patent US6420532B1, “Method of obtaining compositions comprising Y2 specific compounds” (Synaptic Pharmaceutical Corporation, priority 1994, dated 2002)
Like-named read-outs stand apart in the source and are kept apart here. Bridges are numbered along the chain shown (N, C = ends). Where no end group is shown, it is not given here. [ ]: non-standard residue; d: D form. Aoc = NCCCCCCCC(=O)O

Columns and labels:
[1] = biological target: T1, human hippocampal Y2 receptor (clone CG-13) (human, UniProt P49146 1-381); assay: cell-based or functional assay
T1 sequence: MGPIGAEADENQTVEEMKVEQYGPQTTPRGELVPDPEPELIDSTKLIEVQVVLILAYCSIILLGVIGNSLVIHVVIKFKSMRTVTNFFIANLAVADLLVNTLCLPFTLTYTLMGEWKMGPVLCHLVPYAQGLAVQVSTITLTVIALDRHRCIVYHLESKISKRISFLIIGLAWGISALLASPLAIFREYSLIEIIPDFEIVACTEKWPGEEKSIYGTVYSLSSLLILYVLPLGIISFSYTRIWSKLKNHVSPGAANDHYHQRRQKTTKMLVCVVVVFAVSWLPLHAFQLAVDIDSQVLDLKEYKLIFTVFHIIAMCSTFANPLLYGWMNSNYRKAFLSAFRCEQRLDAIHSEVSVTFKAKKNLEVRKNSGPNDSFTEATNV

[2] = biological target: T1, human hippocampal Y2 receptor (clone …); assay: 125I-PYY displacement, COS-7 membranes, Ki from IC50
[3] = biological target: T2, human Y1 receptor (human, UniProt P25929 1-384); assay: as above
T2 construct: whole, on cells; transiently expressed in COS-7 cells; membranes used; also called Y1 gene
T2 sequence (looked up): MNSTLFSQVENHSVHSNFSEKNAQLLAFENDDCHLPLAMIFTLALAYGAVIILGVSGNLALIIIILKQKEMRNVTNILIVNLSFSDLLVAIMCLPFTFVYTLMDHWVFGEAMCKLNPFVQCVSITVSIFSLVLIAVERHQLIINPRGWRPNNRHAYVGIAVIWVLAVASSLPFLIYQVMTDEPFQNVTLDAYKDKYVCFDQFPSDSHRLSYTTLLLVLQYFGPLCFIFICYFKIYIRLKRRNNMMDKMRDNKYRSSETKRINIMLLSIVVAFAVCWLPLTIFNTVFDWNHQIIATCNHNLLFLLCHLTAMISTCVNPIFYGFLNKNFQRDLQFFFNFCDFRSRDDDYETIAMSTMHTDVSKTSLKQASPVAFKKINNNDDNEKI

[4] = biological target: T3, human Y4 receptor (human, UniProt P50391 1-375); assay: as above
T3 construct: whole, on cells; transiently expressed in COS-7 cells; membranes used
T3 sequence (P50391 whole entry): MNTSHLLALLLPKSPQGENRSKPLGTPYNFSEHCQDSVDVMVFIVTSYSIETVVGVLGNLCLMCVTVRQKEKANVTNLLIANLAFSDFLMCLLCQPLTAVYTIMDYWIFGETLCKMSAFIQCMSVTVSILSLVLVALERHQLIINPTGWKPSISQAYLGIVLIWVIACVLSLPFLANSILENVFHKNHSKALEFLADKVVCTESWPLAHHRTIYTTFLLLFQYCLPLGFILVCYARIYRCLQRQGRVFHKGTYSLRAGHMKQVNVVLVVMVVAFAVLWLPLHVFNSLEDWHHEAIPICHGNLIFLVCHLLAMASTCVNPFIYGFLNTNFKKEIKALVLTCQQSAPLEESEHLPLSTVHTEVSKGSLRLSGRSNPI

[5] = biological target: T1, human hippocampal Y2 receptor (clone …); assay: 125I-PYY displacement binding assay (Table 9, binding column)
[6] = biological target: T1, human hippocampal Y2 receptor (clone …); assay: 125I-PYY displacement, COS-7 membranes, Ki from IC50; remark: listed apart in the source
[7] = biological target: T1, human hippocampal Y2 receptor (clone …); assay: as above; remark: listed apart in the source
[8] = biological target: T4, Y2-like receptor population expressed by human SK-N-Be(2) neuroblastoma cells (human); assay: 125I-PYY displacement, SK-N-Be(2) membranes, Ki from IC50
T4 chain: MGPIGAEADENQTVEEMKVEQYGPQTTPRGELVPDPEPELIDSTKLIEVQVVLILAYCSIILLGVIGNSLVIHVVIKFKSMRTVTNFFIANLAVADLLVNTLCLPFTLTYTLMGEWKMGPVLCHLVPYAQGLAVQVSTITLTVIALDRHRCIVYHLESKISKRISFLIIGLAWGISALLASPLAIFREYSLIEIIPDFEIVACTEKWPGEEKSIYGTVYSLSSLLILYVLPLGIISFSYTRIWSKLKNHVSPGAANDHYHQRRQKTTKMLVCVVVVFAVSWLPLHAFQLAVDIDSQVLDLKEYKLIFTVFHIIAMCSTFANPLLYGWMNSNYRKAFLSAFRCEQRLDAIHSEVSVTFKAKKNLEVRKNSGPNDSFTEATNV

[9] = biological target: T2, human Y1 receptor; assay: 125I-PYY displacement, COS-7 membranes, Ki from IC50; remark: listed apart in the source
[10] = biological target: T5, rat Y2a receptor (encoded by rs5a) (rat); assay: as above
T5 chain: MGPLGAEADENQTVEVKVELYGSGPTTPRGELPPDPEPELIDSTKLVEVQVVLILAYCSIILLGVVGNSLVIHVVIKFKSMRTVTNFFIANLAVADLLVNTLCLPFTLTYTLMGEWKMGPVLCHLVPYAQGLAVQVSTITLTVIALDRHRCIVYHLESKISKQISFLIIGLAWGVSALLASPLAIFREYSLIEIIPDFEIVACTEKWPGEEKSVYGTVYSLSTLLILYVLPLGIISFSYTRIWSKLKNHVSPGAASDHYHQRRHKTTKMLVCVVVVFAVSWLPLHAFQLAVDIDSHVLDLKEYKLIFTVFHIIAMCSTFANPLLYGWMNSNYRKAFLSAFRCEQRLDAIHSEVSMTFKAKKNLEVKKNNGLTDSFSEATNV

B1: C2-NPY, porcine (peptide)
chain: YCSK[Aoc]RHCINLITRQRY-NH2
modifications: disulfide 2-8; N-terminus assumed
SMILES: CC[C@H](C)[C@H](NC(=O)[C@@H]1CSSC[C@H](NC(=O)[C@@H](N)Cc2ccc(O)cc2)C(=O)N[C@@H](CO)C(=O)N[C@@H](CCCCN)C(=O)NCCCCCCCC(=O)N[C@@H](CCCNC(=N)N)C(=O)N[C@@H](Cc2c[nH]cn2)C(=O)N1)C(=O)N[C@@H](CC(N)=O)C(=O)N[C@@H](CC(C)C)C(=O)N[C@H](C(=O)N[C@H](C(=O)N[C@@H](CCCNC(=N)N)C(=O)N[C@@H](CCC(N)=O)C(=O)N[C@@H](CCCNC(=N)N)C(=O)N[C@@H](Cc1ccc(O)cc1)C(N)=O)[C@@H](C)O)[C@@H](C)CC
EC50, inhibition of forskolin-stimulated cAMP accumulation, stably transfected 293 cells [1]: 0.14 nM | Ki [2]: 3.5 nM | Ki [3]: 73 nM | Ki [4]: 120 nM | Ki [5]: 3.5 nM

B2: porcine NPY26-36 (peptide, UniProt P01304 35-45, looked up)
peptide: HYINLITRQRY-NH2
notes: range 26-36; also called NPY26-36, porcine
Ki [6]: 210 nM | Ki [2]: 380 nM | Ki [3]: > 1000 nM | Ki [7]: 380 nM | Ki [8]: 70 nM

B3: PP, frog (peptide)
peptide: APSEPHHPGDQATQDQLAQYYSDLYQYITFVTRPRF-NH2
notes: also called frog PP
Ki [2]: > 1000 nM | Ki [3]: 96 nM | Ki [4]: 61 nM

B4: porcine NPY22-36 (peptide, UniProt P01304 31-45, looked up)
peptide: SALRHYINLITRQRY-NH2
notes: range 22-36; also called NPY22-36, porcine
EC50, inhibition of forskolin-stimulated cAMP accumulation, stably transfected 293 cells [1]: 2.3 nM | Ki [6]: 4.6 nM | Ki [9]: 170 nM | Ki [2]: 18 nM | Ki [8]: 3.2 nM | Ki [5]: 18 nM

B5: PP, bovine (peptide, UniProt P01302 30-65, looked up)
peptide: APLEPEYPGDNATPEQMAQYAAELRRYINMLTRPRY-NH2
notes: mature; also called bovine PP
Ki [2]: 830 nM | Ki [3]: 240 nM | Ki [4]: 0.05 nM | Ki [7]: > 825 nM

B6: porcine NPY20-36 (peptide, UniProt P01304 29-45, looked up)
peptide: YYSALRHYINLITRQRY-NH2
notes: range 20-36; also called NPY20-36, porcine
Ki [9]: 62 nM | Ki [3]: 63 nM | Ki [4]: 120 nM

B7: porcine NPY16-36 (peptide, UniProt P01304 25-45, looked up)
peptide: DLARYYSALRHYINLITRQRY-NH2
notes: range 16-36; also called NPY16-36, porcine
EC50, inhibition of forskolin-stimulated cAMP accumulation, stably transfected 293 cells [1]: 1.8 nM | Ki [6]: 3.8 nM | Ki [2]: 3.6 nM | Ki [4]: 54 nM | Ki [8]: 5 nM | Ki [5]: 3.6 nM

B8: porcine PYY13-36 (peptide, UniProt P68005 13-36, looked up)
peptide: SPEELSRYYASLRHYLNLVTRQRY-NH2
notes: range 13-36; also called PYY13-36, porcine
Ki [6]: 1.5 nM | Ki [10]: 1.5 nM

B9: porcine NPY13-36 (peptide, UniProt P01304 22-45, looked up)
peptide: PAEDLARYYSALRHYINLITRQRY-NH2
notes: range 13-36; also called NPY13-36, porcine
Ki [4]: 38 nM | Ki [8]: 1.8 nM
